Target: purified fragment of human Calnexin containing Amino acid 1-481 fused to human FC region (FC-CNX) (human) (UniProt P27824)
Assay: ELISA, coat CNX-Fc (figure title), antibody 1 ug/ml, HRP secondary, OD450 normalised to BSA

Sequence of purified fragment of human Calnexin containing Amino acid 1-481 fused to human FC region (FC-CNX) (human) (P27824 21-481 limits assumed, form in doubt): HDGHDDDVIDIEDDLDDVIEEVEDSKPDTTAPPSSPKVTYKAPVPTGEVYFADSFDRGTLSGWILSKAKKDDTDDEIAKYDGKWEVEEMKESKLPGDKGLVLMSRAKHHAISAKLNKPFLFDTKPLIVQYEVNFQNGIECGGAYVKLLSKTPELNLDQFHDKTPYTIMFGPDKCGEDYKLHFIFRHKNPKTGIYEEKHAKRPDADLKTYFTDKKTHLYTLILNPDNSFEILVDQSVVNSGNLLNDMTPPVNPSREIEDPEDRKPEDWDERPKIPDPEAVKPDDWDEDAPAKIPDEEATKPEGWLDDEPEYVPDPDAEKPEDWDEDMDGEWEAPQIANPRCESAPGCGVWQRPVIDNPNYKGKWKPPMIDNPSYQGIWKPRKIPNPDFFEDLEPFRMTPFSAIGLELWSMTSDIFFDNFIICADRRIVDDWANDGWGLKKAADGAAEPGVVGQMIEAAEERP

| OD450 (Normalised to BSA) | Substance |
| --- | --- |
| 4.79 | CNX ab10286 (antibody) |
| 0.9 | CRT ab92516 (antibody) |
| 0.51 | ctrl hIgG (antibody) |

From US20220363738A1
